Experimental data taken from the supplement of paper PMC10567573.

B1: PI4K2A (parent)
chain: FVKDPQGRIIAVFKPKNEEPYGHL

Variants of: B1
Experiment: protein stability index of a GFP-peptide fusion (GPS, HEK-293T) (PSI 1-6); higher = more stable
Settings: c terminus: a fixed tail appended
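Note: lentivirally expressed fusions sorted by FACS into six bins by GFP to DsRed ratio, PSI derived from sequencing read proportions per bin multiplied by bin number.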

Variant | protein stability index
FYKDPQGRIIAVFKPKNEEPYGHL [V2Y] | 1.95
FVADPQGRIIAVFKPKNEEPYGHL [K3A] | 1.57
FVCDPQGRIIAVFKPKNEEPYGHL [K3C] | 2.7
FVEDPQGRIIAVFKPKNEEPYGHL [K3E] | 1.42
FVGDPQGRIIAVFKPKNEEPYGHL [K3G] | 2.56
FVHDPQGRIIAVFKPKNEEPYGHL [K3H] | 1.68
FVIDPQGRIIAVFKPKNEEPYGHL [K3I] | 2.03
FVLDPQGRIIAVFKPKNEEPYGHL [K3L] | 1.85
FVMDPQGRIIAVFKPKNEEPYGHL [K3M] | 1.47
FVPDPQGRIIAVFKPKNEEPYGHL [K3P] | 1.91
FVQDPQGRIIAVFKPKNEEPYGHL [K3Q] | 1.32
FVRDPQGRIIAVFKPKNEEPYGHL [K3R] | 3.49
FVSDPQGRIIAVFKPKNEEPYGHL [K3S] | 2.67
FVWDPQGRIIAVFKPKNEEPYGHL [K3W] | 2.19
FVYDPQGRIIAVFKPKNEEPYGHL [K3Y] | 2.01
FVKAPQGRIIAVFKPKNEEPYGHL [D4A] | 2.86
FVKCPQGRIIAVFKPKNEEPYGHL [D4C] | 2.08
FVKEPQGRIIAVFKPKNEEPYGHL [D4E] | 1.49
FVKFPQGRIIAVFKPKNEEPYGHL [D4F] | 2.21
FVKGPQGRIIAVFKPKNEEPYGHL [D4G] | 1
FVKHPQGRIIAVFKPKNEEPYGHL [D4H] | 1.12
FVKKPQGRIIAVFKPKNEEPYGHL [D4K] | 2.28
FVKLPQGRIIAVFKPKNEEPYGHL [D4L] | 1.11
FVKPPQGRIIAVFKPKNEEPYGHL [D4P] | 1.31

Variant | protein stability index
FVKQPQGRIIAVFKPKNEEPYGHL [D4Q] | 2.74
FVKSPQGRIIAVFKPKNEEPYGHL [D4S] | 1.7
FVKTPQGRIIAVFKPKNEEPYGHL [D4T] | 1.48
FVKYPQGRIIAVFKPKNEEPYGHL [D4Y] | 2.06
FVKDAQGRIIAVFKPKNEEPYGHL [P5A] | 1.83
FVKDCQGRIIAVFKPKNEEPYGHL [P5C] | 1.66
FVKDDQGRIIAVFKPKNEEPYGHL [P5D] | 2.03
FVKDEQGRIIAVFKPKNEEPYGHL [P5E] | 2.04
FVKDGQGRIIAVFKPKNEEPYGHL [P5G] | 1.5
FVKDHQGRIIAVFKPKNEEPYGHL [P5H] | 2.51
FVKDKQGRIIAVFKPKNEEPYGHL [P5K] | 2.07
FVKDLQGRIIAVFKPKNEEPYGHL [P5L] | 1.39
FVKDMQGRIIAVFKPKNEEPYGHL [P5M] | 1.3
FVKDNQGRIIAVFKPKNEEPYGHL [P5N] | 2.29
FVKDQQGRIIAVFKPKNEEPYGHL [P5Q] | 2.83
FVKDRQGRIIAVFKPKNEEPYGHL [P5R] | 2.16
FVKDTQGRIIAVFKPKNEEPYGHL [P5T] | 1.67
FVKDWQGRIIAVFKPKNEEPYGHL [P5W] | 2.7
FVKDYQGRIIAVFKPKNEEPYGHL [P5Y] | 2.28
FVKDPAGRIIAVFKPKNEEPYGHL [Q6A] | 1.71
FVKDPCGRIIAVFKPKNEEPYGHL [Q6C] | 1.54
FVKDPDGRIIAVFKPKNEEPYGHL [Q6D] | 2.4
FVKDPEGRIIAVFKPKNEEPYGHL [Q6E] | 1.63
FVKDPFGRIIAVFKPKNEEPYGHL [Q6F] | 1.62

Variant | protein stability index
FVKDPGGRIIAVFKPKNEEPYGHL [Q6G] | 1.92
FVKDPHGRIIAVFKPKNEEPYGHL [Q6H] | 1.1
FVKDPIGRIIAVFKPKNEEPYGHL [Q6I] | 1.45
FVKDPKGRIIAVFKPKNEEPYGHL [Q6K] | 1.64
FVKDPLGRIIAVFKPKNEEPYGHL [Q6L] | 2.22
FVKDPMGRIIAVFKPKNEEPYGHL [Q6M] | 1.57
FVKDPNGRIIAVFKPKNEEPYGHL [Q6N] | 1.84
FVKDPPGRIIAVFKPKNEEPYGHL [Q6P] | 2.21
FVKDPRGRIIAVFKPKNEEPYGHL [Q6R] | 1.49
FVKDPSGRIIAVFKPKNEEPYGHL [Q6S] | 1.6
FVKDPTGRIIAVFKPKNEEPYGHL [Q6T] | 2.32
FVKDPVGRIIAVFKPKNEEPYGHL [Q6V] | 2.53
FVKDPWGRIIAVFKPKNEEPYGHL [Q6W] | 1.7
FVKDPYGRIIAVFKPKNEEPYGHL [Q6Y] | 1.6
FVKDPQARIIAVFKPKNEEPYGHL [G7A] | 2.29
FVKDPQCRIIAVFKPKNEEPYGHL [G7C] | 2.03
FVKDPQDRIIAVFKPKNEEPYGHL [G7D] | 1.69
FVKDPQERIIAVFKPKNEEPYGHL [G7E] | 2.98
FVKDPQFRIIAVFKPKNEEPYGHL [G7F] | 2.74
FVKDPQHRIIAVFKPKNEEPYGHL [G7H] | 2.79
FVKDPQIRIIAVFKPKNEEPYGHL [G7I] | 3
FVKDPQKRIIAVFKPKNEEPYGHL [G7K] | 3.39
FVKDPQMRIIAVFKPKNEEPYGHL [G7M] | 3.42
FVKDPQNRIIAVFKPKNEEPYGHL [G7N] | 2.23

Variant | protein stability index
FVKDPQPRIIAVFKPKNEEPYGHL [G7P] | 1.81
FVKDPQQRIIAVFKPKNEEPYGHL [G7Q] | 2.07
FVKDPQRRIIAVFKPKNEEPYGHL [G7R] | 2.08
FVKDPQTRIIAVFKPKNEEPYGHL [G7T] | 1.45
FVKDPQVRIIAVFKPKNEEPYGHL [G7V] | 1.73
FVKDPQWRIIAVFKPKNEEPYGHL [G7W] | 3.45
FVKDPQGAIIAVFKPKNEEPYGHL [R8A] | 2.51
FVKDPQGCIIAVFKPKNEEPYGHL [R8C] | 2.37
FVKDPQGEIIAVFKPKNEEPYGHL [R8E] | 1.98
FVKDPQGFIIAVFKPKNEEPYGHL [R8F] | 2.27
FVKDPQGGIIAVFKPKNEEPYGHL [R8G] | 2.47
FVKDPQGHIIAVFKPKNEEPYGHL [R8H] | 1.93
FVKDPQGIIIAVFKPKNEEPYGHL [R8I] | 2.72
FVKDPQGKIIAVFKPKNEEPYGHL [R8K] | 1.61
FVKDPQGLIIAVFKPKNEEPYGHL [R8L] | 1.81
FVKDPQGMIIAVFKPKNEEPYGHL [R8M] | 2.87
FVKDPQGNIIAVFKPKNEEPYGHL [R8N] | 1.31
FVKDPQGQIIAVFKPKNEEPYGHL [R8Q] | 1.92
FVKDPQGSIIAVFKPKNEEPYGHL [R8S] | 3.87
FVKDPQGTIIAVFKPKNEEPYGHL [R8T] | 3.95
FVKDPQGVIIAVFKPKNEEPYGHL [R8V] | 1.72
FVKDPQGWIIAVFKPKNEEPYGHL [R8W] | 1.14
